From patent US20090175866A1, “TREATMENT OF B-CELL MALIGNANCIES” (priority 2004, published 2009)

How the values were obtained:
FGFR3 [1] = molecular target: T1, FGFR3 (Homo sapiens, UniProt P22607); test: Affinity and Koff to FGFR3 measured by BIAcore; format: binding
FGFR3 [2] = molecular target: T1, FGFR3; test: FGFR3 domain specificity of binding

T1 sequence (P22607 23-806): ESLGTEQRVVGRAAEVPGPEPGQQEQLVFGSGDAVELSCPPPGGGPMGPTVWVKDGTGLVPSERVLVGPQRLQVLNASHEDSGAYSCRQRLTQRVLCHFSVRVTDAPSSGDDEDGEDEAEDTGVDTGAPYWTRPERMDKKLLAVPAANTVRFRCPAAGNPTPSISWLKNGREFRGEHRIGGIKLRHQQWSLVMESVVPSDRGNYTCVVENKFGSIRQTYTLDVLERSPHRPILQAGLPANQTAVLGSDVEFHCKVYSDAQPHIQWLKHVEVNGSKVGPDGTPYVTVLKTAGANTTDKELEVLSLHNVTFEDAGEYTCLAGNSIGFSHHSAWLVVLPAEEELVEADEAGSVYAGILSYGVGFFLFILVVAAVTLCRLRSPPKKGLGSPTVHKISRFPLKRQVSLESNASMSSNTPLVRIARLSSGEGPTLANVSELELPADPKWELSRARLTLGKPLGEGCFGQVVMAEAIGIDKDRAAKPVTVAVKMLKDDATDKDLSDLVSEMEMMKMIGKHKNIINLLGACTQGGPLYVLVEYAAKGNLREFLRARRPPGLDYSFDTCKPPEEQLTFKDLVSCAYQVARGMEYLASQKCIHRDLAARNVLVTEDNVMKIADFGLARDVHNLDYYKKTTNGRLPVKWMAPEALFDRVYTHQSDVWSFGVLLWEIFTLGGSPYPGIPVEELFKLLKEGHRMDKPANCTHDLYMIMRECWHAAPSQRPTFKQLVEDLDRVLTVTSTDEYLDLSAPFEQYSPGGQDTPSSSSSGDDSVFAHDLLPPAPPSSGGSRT

B1: PRO-002: HuCAL anti-FGFR3 clone; VH-CDR3 SEQ ID NO:2, VL-CDR3 SEQ ID NO:11 (antibody, V domains shown)
VH: QVQLVQSGAEVKKPGASVKVSCKASGYTFTSYYMHWVRQAPGQGLEWMGWINPNSGGTNYAQKFQGRVTMTRDTSISTAYMELSSLRSEDTAVYYCARDFLGYEFDYWGQGTLVTVSS
VL: DIELTQPPSVSVAPGQTARISCSGDALGDKYASWYQQKPGQAPVLVIYDDSDRPSGIPERFSGSNSGNTATLTISGTQAEDEADYYCQSYDYSADYVFGGGTKLTVLGQ
Kd (FGFR3 [1]): 37 nM | FGFR3 Domain Specificity (FGFR3 [2]): 2

B2: PRO-012: HuCAL anti-FGFR3 clone; VH-CDR3 SEQ ID NO:3, VL-CDR3 SEQ ID NO:12 (antibody, V domains shown)
VH: QVQLKESGPALVKPTQTLTLTCTFSGFSLSTSGVGVGWIRQPPGKALEWLALIDWDDDKYYSTSLKTRLTISKDTSKNQVVLTMTNMDPVDTATYYCARYHSWYEMGYYGSTVGYMFDYWGQGTLVTVSS
VL: DIELTQPPSVSVAPGQTARISCSGDALGDKYASWYQQKPGQAPVLVIYDDSDRPSGIPERFSGSNSGNTATLTISGTQAEDEADYYCQSYDFDFAVFGGGTKLTVLGQ
Kd (FGFR3 [1]): 14 nM | FGFR3 Domain Specificity (FGFR3 [2]): 2

B3: PRO-026: HuCAL anti-FGFR3 clone; VH-CDR3 SEQ ID NO:6, VL-CDR3 SEQ ID NO:15 (antibody, V domains shown)
VH: QVQLVQSGAEVKKPGASVKVSCKASGYTFTSYYMHWVRQAPGQGLEWMGWINPNSGGTNYAQKFQGRVTMTRDTSISTAYMELSSLRSEDTAVYYCARGYWYAYFTYINYGYFDNWGQGTLVTVSS
VL: DIALTQPASVSGSPGQSITISCTGTSSDVGGYNYVSWYQQHPGKAPKLMIYDVSNRPSGVSNRFSGSKSGNTASLTISGLQAEDEADYYCQSYDNNSDVVFGGGTKLTVLGQ
Kd (FGFR3 [1]): 4 nM | FGFR3 Domain Specificity (FGFR3 [2]): 3c

B4: PRO-029: HuCAL anti-FGFR3 clone; VH-CDR3 SEQ ID NO:7, VL-CDR3 SEQ ID NO:16 (antibody, V domains shown)
VH: QVQLVQSGAEVKKPGASVKVSCKASGYTFTSYYMHWVRQAPGQGLEWMGWINPNSGGTNYAQKFQGRVTMTRDTSISTAYMELSSLRSEDTAVYYCARTWQYSYFYYLDGGYYFDIWGQGTLVTVSS
VL: DIVLTQSPATLSLSPGERATLSCRASQSVSSSYLAWYQQKPGQAPRLLIYGASSRATGVPARFSGSGSGTDFTLTISSLEPEDFATYYCQQTNNAPVTFGQGTKVEIKRT
Kd (FGFR3 [1]): 6 nM | FGFR3 Domain Specificity (FGFR3 [2]): 3c

B5: PRO-054: HuCAL anti-FGFR3 clone; VH-CDR3 SEQ ID NO:8, VL-CDR3 SEQ ID NO:17 (antibody, V domains shown)
VH: QVQLVQSGAEVKKPGASVKVSCKASGYTFTSYYMHWVRQAPGQGLEWMGWINPNSGGTNYAQKFQGRVTMTRDTSISTAYMELSSLRSEDTAVYYCARNMAYTNYQYVNMPHFDYWGQGTLVTVSS
VL: DIELTQPPSVSVAPGQTARISCSGDALGDKYASWYQQKPGQAPVLVIYDDSDRPSGIPERFSGSNSGNTATLTISGTQAEDEADYYCQSYDYFKLVFGGGTKLTVLGQ
Kd (FGFR3 [1]): 3.7 nM | FGFR3 Domain Specificity (FGFR3 [2]): 3c

B6: PRO-055: HuCAL anti-FGFR3 clone; VH-CDR3 SEQ ID NO:9, VL-CDR3 SEQ ID NO:18 (antibody, V domains shown)
VH: QVQLVQSGAEVKKPGASVKVSCKASGYTFTSYYMHWVRQAPGQGLEWMGWINPNSGGTNYAQKFQGRVTMTRDTSISTAYMELSSLRSEDTAVYYCARSMNSTMYWYLRRVLFDHWGQGTLVTVSS
VL: DIALTQPASVSGSPGQSITISCTGTSSDVGGYNYVSWYQQHPGKAPKLMIYDVSNRPSGVSNRFSGSKSGNTASLTISGLQAEDEADYYCQSYDMYNYIVFGGGTKLTVLGQ
Kd (FGFR3 [1]): 2.9 nM | FGFR3 Domain Specificity (FGFR3 [2]): 3c
